{
  "source": "patent US20260022144A1",
  "about": "“ANALGESIC POLYPEPTIDE” (Shanghai Puyou Biomedical Co., Ltd., priority 2022, published 2026)",
  "key": {"[1]": {"test_system": "SNL pain model in rats", "experiment": "SNL (spinal nerve ligation) pain model in rats, mechanical allodynia test", "format": "in vivo, rat", "conditions": "SD rats, 1 h after administration", "description": "A summary of the method for inducing pain model in rats by means of spinal nerve ligation is provided hereinafter. Briefly, male SD rats were anesthetized with Zoletil R 50+xylazine hydrochloride (20 mg/kg+8 mg/kg, intraperitoneal injection). The surgical areas on the waist regions of the animals were shaved, and the skin was disinfected with iodophor and 70% v/v ethanol for three times. The left spinal nerves L5 and L6 of the animals were isolated, tightly ligated with 6-0 silk suture, and the wounds were sutured.\nOn the 11th day post operation, the animals were acclimated to the experimental environment, 15 minutes/day, for 3 consecutive days.\nBriefly, after SNL modeling, 24 animals were randomly divided into 3 groups (Groups 2, 3 and 4, N=8/group). Group 1 (a Sham group, for which the 10 animals received essentially the same operation procedure as other groups but their left spinal nerves L5 and L6 were neither isolated nor ligated) was used as the control group. The test articles were administrated to the animals according to the protocol shown in Table 5, and mechanical allodynia tests were respectively performed 1h after administration according to the method as recited in Example 1.\nBriefly, after SNL modeling, 30 animals were randomly divided into 3 groups (Group 1, N=6/group; Groups 2 and 3, N=12/group). Various polypeptides of the present disclosure were administered to the animals from Groups 2 and 3, and the animals were subjected to mechanical allodynia tests 1 h after administration according to the method as recited in Example 1."}, "[2]": {"test_system": "eye pain (ocular neuropathic pain) model induced by benzalkonium chloride in mice", "experiment": "Eye pain model induced by benzalkonium chloride in mice, scratching behavior test", "format": "in vivo, mouse", "conditions": "eye drops TID, 30 μg/ml, 10 μL (0.3 μg/eye/each time), after 2 days of treatment, 2M NaCl challenge, vs model group", "description": "C57BL/6JNifdc mice were used in the experiment. Briefly, each of the mice was fixed with one hand, with one eye prop opened with the other hand (and fixed with another lab technician). The modeling drug, i.e., 0.1% benzalkonium chloride was dripped into one eye (twice a day (9:00, 17:00), 10 μL each time) and maintained for 30 seconds. The operation was repeated for six days.\nIn order to evaluate the pathological changes at the front of the mice's eyes, slit lamp photos were taken on the third day since the beginning of modeling. According to the photographic results, the mice's eyes were scored from three viewing angles, including corneal opacity (0: clear, 1: visible opacity, 2: difficult to find, 3: pupil invisible), conjunctival edema (0: absent, 1: slight edema, 2: edema, 3: severe edema) and congestion (0: absent, 1: slight congestion, 2: congestion, 3: severe congestion, 4: hemorrhage), to access and evaluate the damages at the front of the mice's eyes. The mice were then randomized into groups. […]\nScratching behavior test: The eyes were administered for two consecutive days. […] After acting for 5 seconds, the mice were released back into the cage, and the numbers of wipes over the eyes within 30 seconds were counted."}, "[3]": {"test_system": "chemotherapy-induced peripheral neuropathy model induced by cisplatin in mice", "experiment": "Cancer pain associated with CIPN model induced by cisplatin in mice, mechanical allodynia test", "format": "in vivo, mouse", "conditions": "C57BL/6 mice; for pain thresholds (50% PWT) of treatment groups vs model group, preventive effect: 15 mg/kg i.p. qd or bid in parallel with cisplatin", "description": "The experiments in this Example were divided into two parts. In the first part (Part I), the administration of SEQ ID NO: 29 was performed in parallel with modeling to explore the preventive effect of the polypeptide of the present disclosure on cancer pain associated with CIPN, in particular CIPN induced by cisplatin. In the second part (Part II), after elution of SEQ ID NO: 29 from the mice's bodies, mechanical allodynia tests were performed on the mice to confirm that the animals still had the cancer pain associated with CIPN, and to explore the therapeutic effect of the polypeptide of the present disclosure on cancer pain associated with CIPN after modeling.\n44 male C57BL/6 mice weighting 20 to 25 g were randomly divided into 4 groups, with 8 mice in the control group (Group 1, administered with vehicle (normal saline)), 12 mice in the model group (Group 2, administered with vehicle (normal saline) and cisplatin (2.3 mg/kg, i.p., qd)), 12 mice in the treatment group (qd) (Group 3, administered with SEQ ID NO: 29 (15 mg/kg, i.p., qd) and cisplatin (2.3 mg/kg, i.p., qd)) and 12 mice in the treatment group (bid) (Group 4, administered with SEQ ID NO: 29 (15 mg/kg, i.p., bid) and cisplatin (2.3 mg/kg, i.p., qd)).\nAdministration of SEQ ID NO: 29 was performed on scheduled dates. Briefly, SEQ ID NO: 29 was administered qd or bid by intraperitoneal injection on each day from Day 1 to Day 11, followed by a washing-out period ranging from Day 12 to Day 23. Afterwards, the administration of SEQ ID NO: 29 was resumed on the basis of the same regimen as above, lasting from Day 24 to Day 30.\nThe mice were subjected to mechanical allodynia tests 0 h before administration and 2 h after the first administration of the test articles (normal saline or SEQ ID NO: 29) according to the method as recited in Example 1 on Day 6, Day 10, Day 23 and Day 30, respectively."}},
  "data": [
    {"molecule": "SEQ ID NO: 29: exemplary polypeptide of the present disclosure; artificial polypeptide of formula (I) X-Y (protein) SEKKQPVDLGLLEEDDEFEEFPAEDWAGLDEDEDAHVWEDNWDDDNVEDDFSNQLRATVLLMILVAETPYGAYVLHQKGRMASAFLAA", "values": [
      {"measurement": "analgetic effect (50% PWT)", "setting": "[1]; i.v. single administration (SEQ ID NO: 29 30 and 60 mg/kg; SEQ ID NO: 90 and 93 60 mg/kg)", "result": "certain analgetic effect"},
      {"measurement": "analgetic effect of 60 mg/kg compared with 30 mg/kg (50% PWT)", "setting": "[1]; i.v. single administration", "result": "much higher than that produced from the dose of 30 mg SEQ ID NO: 29/kg"},
      {"measurement": "numbers of wipes over the eyes within 30 seconds", "setting": "[2]", "result": "significantly decreased numbers of wiping over the eyes (P<0.01)"},
      {"measurement": "pain thresholds (50% PWT) of treatment groups, therapeutic effect", "setting": "[3]; 15 mg/kg i.p. qd or bid Day 24 to Day 30, Day 30 vs Day 23", "result": "significantly increased"},
      {"measurement": "pain thresholds (50% PWT) of treatment groups vs model group, preventive effect", "setting": "[3]; Day 6", "result": "significantly higher than those of the mice from the model group"},
      {"measurement": "pain thresholds (50% PWT) of treatment groups vs model group, preventive effect", "setting": "[3]; Day 10", "result": "significantly higher than those of the mice from the model group"},
      {"measurement": "levels of pain thresholds under different dosing frequency", "setting": "[3]; 15 mg/kg i.p., qd vs bid", "result": "dose-related"}
    ]}
  ]
}
